Literature values in article PMC12593480.

Biological target: IL6 (Homo sapiens) (UniProt P05231)
Sequence of UniProt P05231 (P05231 30-212): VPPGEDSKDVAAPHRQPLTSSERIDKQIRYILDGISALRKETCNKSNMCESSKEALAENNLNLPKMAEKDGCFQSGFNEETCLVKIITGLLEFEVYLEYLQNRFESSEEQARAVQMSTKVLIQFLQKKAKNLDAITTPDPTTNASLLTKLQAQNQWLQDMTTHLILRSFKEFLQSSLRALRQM

Kd: 9 nM
Substance: IL6 receptor alpha (from UniProt P08887)
